From US7282556B2, “Polynucleotides and polypeptides relating to the modulation of SIRPα-CD47” (Emory University, priority 2001, dated 2007)

Molecular target: T1, CD47-SIRPα1 binding (CD47-AP / SIRPα1-GST) (Homo sapiens, UniProt P78324)
T1 construct: Microtiter plates were coated with SIRPα1 extracellular domain fusion protein (SIRPα1-GST, 1 μg/ml) for 2 hr; A construct consisting of the extracellular domain of human CD47 fused to the catalytic domain of human placental AP; made in house
Test: CD47-AP binding to immobilized SIRPα1-GST (alkaline phosphatase activity)
Settings: SIRPα-GST coated 2 μg/ml, CD47-AP 1-2 μg/ml
Experimental: FIG. 2C (right panel) is a bar graph that illustrates CD47-AP specifically binds to SIRPα-GST fusion protein but not SIRPβ-GST. In this panel, microtiter plates were coated with either SIRPα-GST or highly similar SIRPβ-GST (10 μg/ml) followed by blocking with BSA. To each well was then added recombinant CD47-AP followed by washing. Bound CD47-AP was then detected by assay for alkaline phosphatase after addition of appropriate substrate.
FIGS. 6A-6C are graphs that illustrate the effects of synthetic peptides on CD47-SIRPα binding. FIG. 6A illustrates the effect of peptide C5/D5.1 on CD47-SIRPα binding. […] After blocking, CD47-AP was added in the absence or presence of synthetic peptides C5/D5.1 and control peptides C5/D5.4, C5/D5.11 and C5/D5.12 (used as 1 mM each). “*” p<0.01. CD47-AP binding was then detected by assay of alkaline phosphatase activity and normalized with respect to binding in the absence of any peptide (CD47-AP only). FIG. 6B illustrates the effect of dose-dependent inhibition of CD47-SIRPα1 binding by peptide C5/D5.1 performed as in FIG. 6A but with increasing concentrations of peptide as indicated. […] Binding of these proteins were detected by a goat anti-GST antibody followed by peroxidase conjugated anti-goat secondary (for detecting SIRPα1-GST) or directly developed for alkaline phosphatase activity (for detecting CD47-AP). […]

T1 sequence (P78324 31-373 limits assumed): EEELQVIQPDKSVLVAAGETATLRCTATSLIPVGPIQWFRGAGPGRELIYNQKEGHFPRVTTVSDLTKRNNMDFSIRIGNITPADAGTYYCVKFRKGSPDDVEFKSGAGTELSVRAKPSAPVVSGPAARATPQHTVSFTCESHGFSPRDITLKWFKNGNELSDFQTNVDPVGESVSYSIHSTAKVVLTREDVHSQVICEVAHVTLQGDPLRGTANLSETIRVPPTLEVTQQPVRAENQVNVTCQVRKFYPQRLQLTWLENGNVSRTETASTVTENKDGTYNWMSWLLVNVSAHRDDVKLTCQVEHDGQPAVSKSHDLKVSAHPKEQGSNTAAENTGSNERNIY

B1: JAM-AP: control AP fusion protein containing the extracellular domain of junction adhesion molecule (protein)
chain: SVTVHSSEPEVRIPENNPVKLSCAYSGFSSPRVEWKFDQGDTTRLVCYNNKITASYEDRVTFLPTGITFKSVTREDTGTYTCMVSEEGGNSYGEVKVKLIVLVPPSKPTVNIPSSATIGNRAVLTCSEQDGSPPSEYTWFKDGIVMPTNPKSTRAFSNSSYVLNPTTGELVFDPLSASDTGEYSCEARNGYGTPMTSNAVRMEAVERNVGV
modifications: left off: large carriers
notes: control AP fusion protein containing the extracellular domain of junction adhesion molecule
  binding of AP fusion protein to SIRPα-GST (AP activity, OD405): absence of binding
